Results reported in patent US20240124586A1 (WUXI BIOLOGICS IRELAND, published 2024).
Positions count from the first letter of the chain named. In names and notes the source's numbering stands. One block for each binder: values may come before it.

How the values were obtained:
FcRn = target: T1, FcRn (UniProt P55899 24-297; P61769 21-119, limits assumed); test: SPR at pH 6.0, antibody immobilized, FcRn injected, steady state model; pH 6.0
T1 construct: a molecular weight of 45 kDa was used
Experimental: Antibody binding affinity to FcRn was detected using Biacore T200 (or Biacore 8K). Each antibody was immobilized on CM5 sensor chip (GE). FcRn at different concentrations in running buffer (50 mM Na2HPO4/NaH2PO4, 150 mM NaCl, 0.05% Tween20, pH 6.0) were injected over the sensor chip at a flow rate of 30 uL/min for an association phase of 60 s, followed by 60 s dissociation. The chip was then regenerated by 1×PBS (pH 7.4) after each binding cycle.

[1] = target: T2, human CD19 on CD19+ B cell lines (Ramos, Raji) (human, UniProt P15391 20-556); test: flow cytometry on Ramos cells
T2 construct: whole, on cells; also called CD19+ Ramos cells; CD19+ Raji cells
T2 sequence (looked up): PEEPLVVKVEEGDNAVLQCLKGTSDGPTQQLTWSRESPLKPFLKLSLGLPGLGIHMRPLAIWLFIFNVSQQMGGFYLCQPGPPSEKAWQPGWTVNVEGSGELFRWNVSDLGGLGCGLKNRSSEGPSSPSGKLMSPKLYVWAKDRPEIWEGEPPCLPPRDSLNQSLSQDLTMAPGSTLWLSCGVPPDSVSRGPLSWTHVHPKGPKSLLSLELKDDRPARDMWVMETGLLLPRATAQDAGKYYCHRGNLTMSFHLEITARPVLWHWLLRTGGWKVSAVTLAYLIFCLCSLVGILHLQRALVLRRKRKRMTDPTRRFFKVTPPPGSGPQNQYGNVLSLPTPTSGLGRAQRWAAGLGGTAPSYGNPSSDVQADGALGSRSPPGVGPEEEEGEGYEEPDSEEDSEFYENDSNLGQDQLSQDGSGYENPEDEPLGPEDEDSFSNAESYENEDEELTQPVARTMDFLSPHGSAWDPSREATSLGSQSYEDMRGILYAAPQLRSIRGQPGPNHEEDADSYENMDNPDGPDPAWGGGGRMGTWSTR

FcγRIIIa (F176) = FcγRIIIa (F176) (UniProt P08637 17-208); test: SPR (Biacore), receptor captured on anti-his chip, steady state model
Sequence of FcγRIIIa (F176) (P08637 17-208 limits assumed): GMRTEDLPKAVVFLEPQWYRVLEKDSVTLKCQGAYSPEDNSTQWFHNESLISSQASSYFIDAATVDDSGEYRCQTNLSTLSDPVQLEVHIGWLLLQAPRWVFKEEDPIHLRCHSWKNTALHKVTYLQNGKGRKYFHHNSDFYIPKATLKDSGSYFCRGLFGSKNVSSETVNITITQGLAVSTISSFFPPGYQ
Experimental: (§1) Antibody binding affinity to FcγRs was detected using Biacore T200 (or Biacore 8K). Each receptor was captured on an anti-his antibody immobilized CM5 sensor chip (GE). Antibodies at different concentrations were injected over the sensor chip at a flow rate of 30 uL/min for an association phase of 60 s, followed by 60 s dissociation. The chip was then regenerated by 10 mM glycine (pH 1.5) after each binding cycle.
(§2) The sensorgrams of blank surface and buffer channel were subtracted from the test sensorgrams. The experimental data was fitted by 1:1 model using Langmiur analysis (for FcγRI) or steady state model (for other receptors). A molecular weight of 150 KDa was used to calculate the molar concentration of antibodies.

FcγRIIb = target: T3, FcγRIIb (UniProt P31994 46-217, limits assumed); test: as above
T3 sequence (looked up): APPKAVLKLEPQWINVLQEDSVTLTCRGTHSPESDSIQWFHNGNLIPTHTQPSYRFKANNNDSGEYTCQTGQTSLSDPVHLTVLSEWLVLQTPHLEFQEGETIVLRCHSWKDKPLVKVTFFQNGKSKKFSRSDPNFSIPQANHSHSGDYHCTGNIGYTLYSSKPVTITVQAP
Experimental: as §1, §2

FcγRIIa (H167) = target: T4, FcγRIIa (H167) (UniProt P12318 36-218, limits assumed); test: as above
T4 sequence (looked up): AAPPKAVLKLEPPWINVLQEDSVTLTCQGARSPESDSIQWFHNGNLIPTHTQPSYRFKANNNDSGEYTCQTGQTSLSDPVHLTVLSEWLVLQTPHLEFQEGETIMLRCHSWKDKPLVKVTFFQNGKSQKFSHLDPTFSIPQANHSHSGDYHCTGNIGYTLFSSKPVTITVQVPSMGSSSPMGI
Experimental: as §1, §2

FcγRIIIa (V176) = FcγRIIIa (V176) (UniProt P08637 17-208); test: as above
Sequence of FcγRIIIa (V176) (P08637 17-208 F176V limits assumed): as the sequence (P08637 17-208 limits assumed) above, with F160V counted along it
Experimental: as §1, §2

FcγRIIa (R167) = target: T5, FcγRIIa (R167) (UniProt P12318 36-218, limits assumed); test: as above
T5 sequence (looked up): T4 sequence (looked up) with H132R
Experimental: as §1, §2

[2] = target: T2, human CD19 on CD19+ B cell lines …; test: cell-based or functional assay
[3] = target: T6, ECD of human CTLA-4 (SPR analyte) (human, UniProt P16410 36-161); test: SPR (Biacore T200), antibody captured by anti-human Fc, CTLA-4 ECD as analyte
T6 construct: extracellular domain
T6 sequence (P16410 36-161): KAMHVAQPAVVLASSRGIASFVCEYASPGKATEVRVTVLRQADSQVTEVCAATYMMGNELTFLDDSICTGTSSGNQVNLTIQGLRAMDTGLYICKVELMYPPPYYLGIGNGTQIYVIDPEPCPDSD
Experimental: SPR technology was used to measure the on-rate constant (ka) and off-rate constant (kd) of the antibodies to ECD of CTLA-4 or PD-1. The affinity constant (KD) was consequently determined.
Biacore T200, Series S Sensor Chip CM5, Amine Coupling Kit, and 10×HBS-EP were purchased from GE Healthcare. Goat anti-human IgG Fc antibody was purchased from Jackson ImmunoResearch Lab (catalog number 109-005-098). In immobilization step, the activation buffer was prepared by mixing 400 mM EDC and 100 mM NHS immediately prior to injection. The CM5 sensor chip was activated for 420 s with the activation buffer. 30 μg/mL of goat anti-human IgG Fcγ antibody in 10 mM NaAc (pH 4.5) was then injected to Fc1-Fc4 channels for 200 s at a flow rate of 5 μL/min. The chip was deactivated by 1 M ethanolamine-HCl (GE). Then the antibodies were captured on the chip. Briefly, 4 μg/mL antibodies in running buffer (HBS-EP+) was injected individually to Fc3 channel for 30 s at a flow rate of […]. […] Regeneration buffer (10 mM Glycine pH 1.5) was injected at 10 μL min for 30 s following every dissociation phase.

Kd (FcRn): 2580 nM
EC50 [1]: 15.6 nM
Kd (FcγRIIIa (F176)): 29300 nM
Kd (FcγRIIb): 24100 nM
Kd (FcγRIIa (H167)): 20500 nM
Kd (FcγRIIIa (V176)): 14000 nM
Kd (FcγRIIa (R167)): 15800 nM
EC50 of cell lysis, CD8+ T cells and Raji cells, 4 hours [2]: 15 nM
B1: W3438-T3U4.E17-1.uIgG4.SP, bispecific anti-CD3 x CD19 (bispecific antibody)
heavy 1: QVQLVQSGAEVKKPGSSVKVSCKASGFAFTDYYIHWVRQAPGQGLEWMGWISPGNVNTKYNENFKGRVTITADKSTSTAYMELSSLRSEDTAVYYCARDGYSLYYFDYWGQGTLVTVLEDLKNVFPPEVAVFEPSEAEISHTQKATLVCLATGFYPDHVELSWWVNGKEVHSGVCTDPQPLKEQPALQDSRYALSSRLRVSATFWQNPRNHFRCQVQFYGLSENDEWTQDRAKPVTQIVSAEAWGRYGPPCPPCPAPEFLGGPSVFLFPPKPKDTLMISRTPEVTCVVVDVSQEDPEVQFNWYVDGVEVHNAKTKPREEQFNSTYRVVSVLTVLHQDWLNGKEYKCKVSNKGLPSSIEKTISKAKGQPREPQVYTLPPCQEEMTKNQVSLWCLVKGFYPSDIAVEWESNGQPENNYKTTPPVLDSDGSFFLYSRLTVDKSRWQEGNVFSCSVMHEALHNHYTQKSLSLSLGK
light 1: DIVMTQSPDSLAVSLGERATINCKSSQSLLNSRTRKNYLAWYQQKPGQPPKLLIYWASTRQSGVPDRFSGSGSGTDFTLTISSLQAEDVAVYYCTQSHTLRTFGGGTKVEIKPDIQNPDPAVYQLRDSKSSDKSVCLFTDFDSQTQVSQSKDSDVYITDKCVLDMRSMDFKSNSAVAWSQKSDFACANAFQNSIIPEDTFFPSPESS
heavy 2: QMQLVQSGPEVKKPGTSVKVSCKASGYAFTSYNMYWVRQARGQRLEWIGYIDPYNGDTTYNQKFKGRVTITRDMSTSTAYMELSSLRSEDTAVYYCLTTAYAMDYWGQGTLVTVSSASTKGPSVFPLAPCSRSTSESTAALGCLVKDYFPEPVTVSWNSGALTSGVHTFPAVLQSSGLYSLSSVVTVPSSSLGTKTYTCNVDHKPSNTKVDKRVESKYGPPCPPCPAPEFLGGPSVFLFPPKPKDTLMISRTPEVTCVVVDVSQEDPEVQFNWYVDGVEVHNAKTKPREEQFNSTYRVVSVLTVLHQDWLNGKEYKCKVSNKGLPSSIEKTISKAKGQPREPQVCTLPPSQEEMTKNQVSLSCAVKGFYPSDIAVEWESNGQPENNYKTTPPVLDSDGSFFLVSRLTVDKSRWQEGNVFSCSVMHEALHNHYTQKSLSLSLGK
light 2: DIQLTQSPSFLSASVGDRVTITCSASSTVNYMHWYQQKPGKAPKLLIYSTSNLASGVPSRFSGSGSGTEFTLTISSLQPEDFATYYCHQWSSYPYTFGQGTKLEIKRTVAAPSVFIFPPSDEQLKSGTASVVCLLNNFYPREAKVQWKVDNALQSGNSQESVTEQDSKDSTYSLSSTLTLSKADYEKHKVYACEVTHQGLSSPVTKSFNRGEC
notes: also called E17-Design_2-QQQQ (IgG4); E17-IgG4; copies: 1 + 1 + 1 + 1
EC50 of T-cell directed killing of malignant B cells (PI-positive Raji cells) [2]: 0.057 nM
EC50 of T-cell engaged malignant B cell killing [2]: 0.0177 nM

Kd [3]: 0.357 nM
B2: W3248-U6T5.G25-1.uIgG4.SP, bispecific anti-PD-1 x CTLA-4 (bispecific antibody)
heavy: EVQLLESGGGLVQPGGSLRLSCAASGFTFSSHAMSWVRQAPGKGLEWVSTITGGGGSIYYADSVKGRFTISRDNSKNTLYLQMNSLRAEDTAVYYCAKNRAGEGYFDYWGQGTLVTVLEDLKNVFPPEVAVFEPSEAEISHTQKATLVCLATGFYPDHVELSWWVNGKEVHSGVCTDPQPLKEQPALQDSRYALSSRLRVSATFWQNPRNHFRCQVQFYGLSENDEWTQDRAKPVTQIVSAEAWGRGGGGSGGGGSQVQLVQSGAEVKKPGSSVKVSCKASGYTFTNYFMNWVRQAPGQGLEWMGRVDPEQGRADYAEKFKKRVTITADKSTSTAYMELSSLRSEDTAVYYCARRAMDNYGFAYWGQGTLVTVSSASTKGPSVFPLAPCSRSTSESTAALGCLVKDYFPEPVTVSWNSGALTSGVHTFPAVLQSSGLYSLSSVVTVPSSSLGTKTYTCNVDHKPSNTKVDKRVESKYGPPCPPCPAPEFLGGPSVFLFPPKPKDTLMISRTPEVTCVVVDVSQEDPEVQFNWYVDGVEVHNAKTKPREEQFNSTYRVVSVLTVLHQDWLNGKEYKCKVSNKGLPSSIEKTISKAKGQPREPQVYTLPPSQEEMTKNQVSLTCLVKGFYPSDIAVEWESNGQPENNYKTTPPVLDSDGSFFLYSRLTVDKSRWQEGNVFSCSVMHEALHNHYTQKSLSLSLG
light 1: SYELTQPLSVSVALGQTARITCGGDNIGNKDVHWYQQKPGQAPVLVIYRDSNRPSGIPEGFSGSNSGNTATLTISRAQAGDEADYYCQVWDSIWVFGGGTKLTVLPDIQNPDPAVYQLRDSKSSDKSVCLFTDFDSQTQVSQSKDSDVYITDKCVLDMRSMDFKSNSAVAWSQKSDFACANAFQNSIIPEDTFFPSPESS
light 2: EIVLTQSPDFQSVTPKEKVTITCSANSALSYMYWYQQKPDQSPKLWVHGTSNLASGVPSRFSGSGSGTDFTLTINSLEAEDAATYYCHHWSNTQWTFGGGTKVEIKRTVAAPSVFIFPPSDEQLKSGTASVVCLLNNFYPREAKVQWKVDNALQSGNSQESVTEQDSKDSTYSLSSTLTLSKADYEKHKVYACEVTHQGLSSPVTKSFNRGEC
notes: IgG4 (S228P); also called WBP3248-U6T5.G25-1-uIgG4.SP; U6T5.G25.IgG4
